From patent US20250352615A1, “COMPOSITIONS AND METHODS FOR THE MODULATION OF PIEZO1 AND TRPV4” (Duke University, priority 2021, published 2025)

Assays:
Piezo1 [1] = molecular target: T1, Piezo1 (Mus musculus, UniProt E2JF22); test: Calcium imaging of Piezo1-mediated [Ca2+]i in mouse PSCs; format: cell-based; conditions: GsMTx4 5 μM
T1 construct: endogenous in cells; host or cells: freshly isolated mouse pancreatic acini (WT = Piezo1 fl/fl on a C57BL/6J background)
Protocol: (§1) Mouse and human PSCs were isolated using collagenase digestion. Modified Krebs Henseleit Buffer (KHB) solution (100 mL) was prepared as previously described by Romac et al., Nat. Commun. 9(1):1715 (2018). Pancreatic tissue was digested with 2 mg of collagenase NB 8 (SERVA, catalog 17456) dissolved in 10 mL of modified KHB solution containing 1 mg soybean trypsin inhibitor (SBTI 1-S; Millipore Sigma, catalog T9003) and 20 mg BSA (Thermo Fisher Scientific; BP1600-100). Digestion solution (5 mL) was used to inflate the pancreas. Pancreas with 5 mL of digestion solution was incubated in a shaking water bath for 10 minutes at 37° C. The solution was then discarded. The pancreas tissue was cut into small pieces and digested with fresh 5 mL digestion buffer. Tissue was incubated in a shaking water bath for 40 minutes at 37° C. The cells were then separated from tissue by pipetting up-down with a 10 mL pipette and passed sequentially through a 70 μm and a 40 μm cell strainer. The filtrate was centrifuged at 150×g for 3 minutes at room temperature. The cells were washed with 10 mL Leibovitz's media (Thermo Fisher Scientific, catalog 11415-064), passed through a 20 μm filter, and centrifuged at 80×g for 3 minutes at room temperature. The supernate was removed, and isolated stellate cells were plated on a thin-layered Matrigel-coated glass bottom culture plate (MatTek, P35G-0-14-C). Before plating the cells, Matrigel solution (Corning, catalog 354234) at a ratio of 1.5:100 DMEM/F12 (Thermo Fisher Scientific, catalog 11330-032) was poured onto the culture plate and incubated for 2 hr at 37° C. to form a thin layer of Matrigel coating. Matrigel mixture was removed, and the plate was washed with PBS before cells were plated. Cell culture media, DMEM/F12 with 5% FBS was used for mouse stellate cells. Fresh, human pancreatic tissue was digested with collagenase as described above with modifications. Collagenase (2.5 mg) in 10 mL of modified KHB solution was used for digestion. The digested tissues were filtered through a 100 μm cell strainer. The cells were cultured with DMEM/F12 with 10% FBS in a Matrigel-coated plate. After 24 hr, the cell media was replaced with fresh media to remove unattached and dead cells. After 2 days, cells were immunostained for GFAP and used for experiments. Perinuclear fat droplets were stained with BODIPY 493/503 (4,4-Difluoro-1,3,5,7,8-Pentamethyl-4-Bora-3a,4a-Diaza-s-Indacene; Invitrogen, catalog D3922) to confirm stellate cell quiescence. The cell viability following Yoda1 treatment was analyzed using the Live/Dead cell imaging kit (Thermo Fisher Scientific, catalog R37601). RNAs were isolated using the RiboPure Kit (Invitrogen, catalog AM1924) according to manufacturer's instructions.
(§2) Fluid shear stress and mechanical pushing applied to stellate cells were achieved as previously described by Wang et al., J. Clin. Invest. 126(12): 4527-4536 (2016). Parallel-plate fluid flow chambers (μ-Slide I 0.4 Luer, or μ-Slide I 0.2 Luer from Ibidi) were used for fluid shear stress experiments. The fluid shear stress (T) was calculated using the formula: τ=η×[…] φ for μ-Slide I 0.4 Luer and τ=η×330.4 φ for μ-Slide I 0.2 Luer, where r represents viscosity of the medium and φ represents flow rate (according to the manufacturer's instructions, Ibidi). Mechanical pushing was achieved by applying a blunt borosilicate glass pipette once to the cell membrane with a deflection of 2-3 μm for 1 second using a micromanipulator (World Precision Instruments).
Calcium 6-QF (Molecular Devices) dye was used for live-cell calcium imaging as described by Romac et al., Nat. Commun. 9(1):1715 (2018). Cells were imaged in HBSS buffer with 2 mM Ca^2+. Faintly and highly fluorescent loaded cells were excluded from analysis. […]

pancreatic acini [2] = test: Trypsinogen activation in pancreatic acini (BZiPAR); format: cell-based, mouse; conditions: GsMTx4 5 μM
Protocol: To visualize Piezo1-induced trypsinogen activation, acini were loaded with active trypsin enzyme substrate BZiPAR (10 μM). Na-HEPES buffer with 2 mM Ca^2+ was used during imaging. A Zeiss Axio observer Z1 with a high-sensitivity EMCCD camera with a ×40/0.75 EC-Plan-NeoFluar DIC objective was used to capture the Z-stack images with stack thickness of 3 μm at an interval of 12 seconds. The BZiPAR fluorescent wavelength Ex/Em was 498/521 nm. BZiPAR was excited at 470-510 nm and emission collected at 495-550 nm. The captured images were analyzed with MetaMorph software (Molecular Devices).

human PSCs = test: Human PSC activation and fibrogenic response (fat droplets, cell shape, ECM mRNA and immunostaining); format: cell-based; conditions: GsMTx4 5 μM, 12 or 25 dyne/cm^2 for 10 minutes
Protocol: as §1, §2
Mouse and human PSCs were washed with PBS (pH 7.4) and fixed with 4% paraformaldehyde for 10 minutes at room temperature. The fixed cells were treated with 0.1% Triton X-100. […]

Piezo1 [3] = molecular target: T1, Piezo1; test: Mechanical pushing-induced [Ca2+]i in pancreatic acini; format: cell-based; conditions: prior treatment with GsMTx4; blunt pipette 5 μm for 1 second
Protocol: A borosilicate glass pipette (Sutter Instrument) was pulled using a pipette puller P-87 (Sutter Instruments) and made blunt with an MF-900 Microforge (Narishige). Acini were pushed once with a 2- to 3-μm tip blunt pipette to 5 μm for 1 second using a micromanipulator (World Precision Instruments).
Calcium imaging in pancreatic acini was performed as previously described. The chemicals used in calcium imaging experiments included the following: Yoda1 (Tocris; 5586), GsMTx4 (Abcam; ab141871), 5′,6′-EET (Santa Cruz Biotechnology; sc-221066), AA (Millipore Sigma; A3611), HC067047 (Tocris; 4100), GSK1016790A (Millipore Sigma; G0798), RN1734 (Tocris; 3746), AACOCF3 (Tocris; 1462), YM26734 (Tocris; 2522), GF109203X (Tocris; 0741), and CCK8 (Sigma-Aldrich).

Piezo1 [4] = molecular target: T2, Piezo1 (Homo sapiens, UniProt Q92508); test: Calcium imaging of Piezo1-mediated [Ca2+]i in human PSCs; format: cell-based; conditions: GsMTx4 5 μM, human PSCs
T2 construct: Fresh, human pancreatic tissue was digested with collagenase as described above with modifications; endogenous in cells; host or cells: primary human pancreatic stellate cells from fresh human pancreatic tissue
T2 sequence (Q92508 whole entry): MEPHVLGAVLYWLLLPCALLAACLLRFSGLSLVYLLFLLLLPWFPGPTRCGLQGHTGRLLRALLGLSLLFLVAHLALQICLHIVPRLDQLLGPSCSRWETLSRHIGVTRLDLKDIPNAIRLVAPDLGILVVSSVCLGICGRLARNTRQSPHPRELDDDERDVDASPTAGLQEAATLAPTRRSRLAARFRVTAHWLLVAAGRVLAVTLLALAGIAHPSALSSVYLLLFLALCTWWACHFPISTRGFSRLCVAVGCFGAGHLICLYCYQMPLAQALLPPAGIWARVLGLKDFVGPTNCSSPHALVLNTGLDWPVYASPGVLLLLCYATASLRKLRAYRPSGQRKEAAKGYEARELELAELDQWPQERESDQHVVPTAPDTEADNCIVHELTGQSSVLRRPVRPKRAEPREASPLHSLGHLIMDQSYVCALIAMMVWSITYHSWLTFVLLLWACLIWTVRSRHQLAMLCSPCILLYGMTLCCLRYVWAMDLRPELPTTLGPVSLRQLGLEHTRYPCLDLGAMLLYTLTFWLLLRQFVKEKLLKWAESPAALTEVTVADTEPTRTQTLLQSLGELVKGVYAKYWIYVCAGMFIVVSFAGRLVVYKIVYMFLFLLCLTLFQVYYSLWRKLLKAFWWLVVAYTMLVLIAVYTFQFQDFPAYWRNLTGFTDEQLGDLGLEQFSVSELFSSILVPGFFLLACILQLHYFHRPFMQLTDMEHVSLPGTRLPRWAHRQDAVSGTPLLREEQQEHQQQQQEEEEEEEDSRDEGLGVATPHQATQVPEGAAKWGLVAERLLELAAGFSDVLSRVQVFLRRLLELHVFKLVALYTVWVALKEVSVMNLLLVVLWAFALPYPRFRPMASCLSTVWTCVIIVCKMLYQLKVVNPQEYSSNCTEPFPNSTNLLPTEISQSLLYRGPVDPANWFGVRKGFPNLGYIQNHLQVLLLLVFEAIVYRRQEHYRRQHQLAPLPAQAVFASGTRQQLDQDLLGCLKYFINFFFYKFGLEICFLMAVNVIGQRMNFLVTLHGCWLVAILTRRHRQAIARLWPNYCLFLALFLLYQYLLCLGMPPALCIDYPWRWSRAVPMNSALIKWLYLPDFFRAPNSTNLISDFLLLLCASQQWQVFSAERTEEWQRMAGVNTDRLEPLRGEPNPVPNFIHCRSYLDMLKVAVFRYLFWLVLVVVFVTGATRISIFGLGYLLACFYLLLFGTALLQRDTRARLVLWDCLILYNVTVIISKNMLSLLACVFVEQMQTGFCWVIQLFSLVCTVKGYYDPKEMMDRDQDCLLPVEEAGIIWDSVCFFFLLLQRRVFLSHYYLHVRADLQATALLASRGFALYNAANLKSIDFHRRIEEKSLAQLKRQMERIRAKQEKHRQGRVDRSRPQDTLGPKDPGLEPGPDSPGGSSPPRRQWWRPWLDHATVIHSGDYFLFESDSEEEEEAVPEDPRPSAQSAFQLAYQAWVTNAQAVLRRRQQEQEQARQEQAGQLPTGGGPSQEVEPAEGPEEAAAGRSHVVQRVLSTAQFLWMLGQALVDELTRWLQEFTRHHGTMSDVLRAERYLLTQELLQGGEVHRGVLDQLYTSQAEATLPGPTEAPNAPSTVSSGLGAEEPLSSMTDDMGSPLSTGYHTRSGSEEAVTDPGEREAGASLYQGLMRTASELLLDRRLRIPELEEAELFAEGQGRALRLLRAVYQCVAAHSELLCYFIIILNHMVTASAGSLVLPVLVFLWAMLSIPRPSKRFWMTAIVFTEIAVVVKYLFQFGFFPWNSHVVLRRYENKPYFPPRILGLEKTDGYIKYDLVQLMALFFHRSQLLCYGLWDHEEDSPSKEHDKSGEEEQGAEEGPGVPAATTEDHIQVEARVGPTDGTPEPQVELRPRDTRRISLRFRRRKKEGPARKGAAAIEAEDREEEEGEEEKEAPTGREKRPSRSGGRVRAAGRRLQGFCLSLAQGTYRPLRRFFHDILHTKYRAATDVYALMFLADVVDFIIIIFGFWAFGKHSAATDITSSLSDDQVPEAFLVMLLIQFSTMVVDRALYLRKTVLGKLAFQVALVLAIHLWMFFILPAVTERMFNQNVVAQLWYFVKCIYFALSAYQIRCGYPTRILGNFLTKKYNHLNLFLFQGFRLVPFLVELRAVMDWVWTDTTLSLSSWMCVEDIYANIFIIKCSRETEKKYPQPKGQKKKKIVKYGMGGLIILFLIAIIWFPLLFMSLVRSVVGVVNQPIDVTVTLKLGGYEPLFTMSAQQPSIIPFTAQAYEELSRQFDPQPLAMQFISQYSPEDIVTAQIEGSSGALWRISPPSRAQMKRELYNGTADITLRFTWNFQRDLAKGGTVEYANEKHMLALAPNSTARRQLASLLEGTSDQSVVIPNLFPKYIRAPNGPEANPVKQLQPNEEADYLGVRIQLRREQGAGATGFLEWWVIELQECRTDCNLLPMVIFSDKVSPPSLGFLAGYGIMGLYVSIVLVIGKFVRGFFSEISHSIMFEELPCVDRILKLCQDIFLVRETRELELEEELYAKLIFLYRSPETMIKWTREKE
Protocol: Mouse and human PSCs were isolated using collagenase digestion. Modified Krebs Henseleit Buffer (KHB) solution (100 mL) was prepared as previously described by Romac et al., Nat. Commun. 9(1):1715 (2018). Pancreatic tissue was digested with 2 mg of collagenase NB 8 (SERVA, catalog 17456) dissolved in 10 mL of modified KHB solution containing 1 mg soybean trypsin inhibitor (SBTI 1-S; Millipore Sigma, catalog T9003) and 20 mg BSA (Thermo Fisher Scientific; BP1600-100). Digestion solution (5 mL) was used to inflate the pancreas. Pancreas with 5 mL of digestion solution was incubated in a shaking water bath for 10 minutes at 37° C. The solution was then discarded. The pancreas tissue was cut into small pieces and digested with fresh 5 mL digestion buffer. Tissue was incubated in a shaking water bath for 40 minutes at 37° C. The cells were then separated from tissue by pipetting up-down with a 10 mL pipette and passed sequentially through a 70 μm and a 40 μm cell strainer. The filtrate was centrifuged at 150×g for 3 minutes at room temperature. The cells were washed with 10 mL Leibovitz's media (Thermo Fisher Scientific, catalog 11415-064), passed through a 20 μm filter, and centrifuged at 80×g for 3 minutes at room temperature. The supernate was removed, and isolated stellate cells were plated on a thin-layered Matrigel-coated glass bottom culture plate (MatTek, P35G-0-14-C). […] The cell viability following Yoda1 treatment was analyzed using the Live/Dead cell imaging kit (Thermo Fisher Scientific, catalog R37601). […]
Fluid shear stress and mechanical pushing applied to stellate cells were achieved as previously described by Wang et al., J. Clin. Invest. […] The fluid shear stress (T) was calculated using the formula: τ=η×[…] φ for μ-Slide I 0.4 Luer and τ=η×330.4 φ for μ-Slide I 0.2 Luer, where r represents viscosity of the medium and φ represents flow rate (according to the manufacturer's instructions, Ibidi). […]

pancreatic acini [5] = test: Mitochondrial depolarization in pancreatic acini (TMRE); format: cell-based, mouse; conditions: GsMTx4 5 μM; Yoda1 50 μM; WT cells
Protocol: Live-cell mitochondrial depolarization was analyzed using the mitochondrial labeling dye, TMRE. Isolated acini were plated on a thin-layered, Matrigel-coated, glass-bottom culture plate with DMEM/F12 and 10% FBS media and placed in a CO2 incubator for 1 hr at 37° C. After 1 hr, the acini were incubated with TMRE (200 nM) in the bath buffer containing 140 mM NaCl, 4.7 mM KCl, 2.0 CaCl2, 1 mM MgCl2, 10 mM HEPES, and 10 mM glucose (pH adjusted to 7.4 with NaOH) for 30 minutes. The TMRE dye was washed and replaced with fresh bath buffer. The images were captured with a Zeiss Axio observer Z1 microscope with MetaMorph software (Molecular Devices) at intervals of 600 ms. TMRE was excited at 540-600 nm and emission collected at 585-675 nm. Carbonyl cyanide 4-(trifluoromethoxy) phenylhydrazone (FCCP), which uncouples the oxidative phosphorylation process and depolarizes mitochondria, was used as a positive control. A maximum of 2 mitochondrial puncta were taken per acinar cell.

Piezo1 [6] = molecular target: T1, Piezo1; conditions: pancreatic acini; recently reported; cited from earlier work

T1 sequence (E2JF22 whole entry): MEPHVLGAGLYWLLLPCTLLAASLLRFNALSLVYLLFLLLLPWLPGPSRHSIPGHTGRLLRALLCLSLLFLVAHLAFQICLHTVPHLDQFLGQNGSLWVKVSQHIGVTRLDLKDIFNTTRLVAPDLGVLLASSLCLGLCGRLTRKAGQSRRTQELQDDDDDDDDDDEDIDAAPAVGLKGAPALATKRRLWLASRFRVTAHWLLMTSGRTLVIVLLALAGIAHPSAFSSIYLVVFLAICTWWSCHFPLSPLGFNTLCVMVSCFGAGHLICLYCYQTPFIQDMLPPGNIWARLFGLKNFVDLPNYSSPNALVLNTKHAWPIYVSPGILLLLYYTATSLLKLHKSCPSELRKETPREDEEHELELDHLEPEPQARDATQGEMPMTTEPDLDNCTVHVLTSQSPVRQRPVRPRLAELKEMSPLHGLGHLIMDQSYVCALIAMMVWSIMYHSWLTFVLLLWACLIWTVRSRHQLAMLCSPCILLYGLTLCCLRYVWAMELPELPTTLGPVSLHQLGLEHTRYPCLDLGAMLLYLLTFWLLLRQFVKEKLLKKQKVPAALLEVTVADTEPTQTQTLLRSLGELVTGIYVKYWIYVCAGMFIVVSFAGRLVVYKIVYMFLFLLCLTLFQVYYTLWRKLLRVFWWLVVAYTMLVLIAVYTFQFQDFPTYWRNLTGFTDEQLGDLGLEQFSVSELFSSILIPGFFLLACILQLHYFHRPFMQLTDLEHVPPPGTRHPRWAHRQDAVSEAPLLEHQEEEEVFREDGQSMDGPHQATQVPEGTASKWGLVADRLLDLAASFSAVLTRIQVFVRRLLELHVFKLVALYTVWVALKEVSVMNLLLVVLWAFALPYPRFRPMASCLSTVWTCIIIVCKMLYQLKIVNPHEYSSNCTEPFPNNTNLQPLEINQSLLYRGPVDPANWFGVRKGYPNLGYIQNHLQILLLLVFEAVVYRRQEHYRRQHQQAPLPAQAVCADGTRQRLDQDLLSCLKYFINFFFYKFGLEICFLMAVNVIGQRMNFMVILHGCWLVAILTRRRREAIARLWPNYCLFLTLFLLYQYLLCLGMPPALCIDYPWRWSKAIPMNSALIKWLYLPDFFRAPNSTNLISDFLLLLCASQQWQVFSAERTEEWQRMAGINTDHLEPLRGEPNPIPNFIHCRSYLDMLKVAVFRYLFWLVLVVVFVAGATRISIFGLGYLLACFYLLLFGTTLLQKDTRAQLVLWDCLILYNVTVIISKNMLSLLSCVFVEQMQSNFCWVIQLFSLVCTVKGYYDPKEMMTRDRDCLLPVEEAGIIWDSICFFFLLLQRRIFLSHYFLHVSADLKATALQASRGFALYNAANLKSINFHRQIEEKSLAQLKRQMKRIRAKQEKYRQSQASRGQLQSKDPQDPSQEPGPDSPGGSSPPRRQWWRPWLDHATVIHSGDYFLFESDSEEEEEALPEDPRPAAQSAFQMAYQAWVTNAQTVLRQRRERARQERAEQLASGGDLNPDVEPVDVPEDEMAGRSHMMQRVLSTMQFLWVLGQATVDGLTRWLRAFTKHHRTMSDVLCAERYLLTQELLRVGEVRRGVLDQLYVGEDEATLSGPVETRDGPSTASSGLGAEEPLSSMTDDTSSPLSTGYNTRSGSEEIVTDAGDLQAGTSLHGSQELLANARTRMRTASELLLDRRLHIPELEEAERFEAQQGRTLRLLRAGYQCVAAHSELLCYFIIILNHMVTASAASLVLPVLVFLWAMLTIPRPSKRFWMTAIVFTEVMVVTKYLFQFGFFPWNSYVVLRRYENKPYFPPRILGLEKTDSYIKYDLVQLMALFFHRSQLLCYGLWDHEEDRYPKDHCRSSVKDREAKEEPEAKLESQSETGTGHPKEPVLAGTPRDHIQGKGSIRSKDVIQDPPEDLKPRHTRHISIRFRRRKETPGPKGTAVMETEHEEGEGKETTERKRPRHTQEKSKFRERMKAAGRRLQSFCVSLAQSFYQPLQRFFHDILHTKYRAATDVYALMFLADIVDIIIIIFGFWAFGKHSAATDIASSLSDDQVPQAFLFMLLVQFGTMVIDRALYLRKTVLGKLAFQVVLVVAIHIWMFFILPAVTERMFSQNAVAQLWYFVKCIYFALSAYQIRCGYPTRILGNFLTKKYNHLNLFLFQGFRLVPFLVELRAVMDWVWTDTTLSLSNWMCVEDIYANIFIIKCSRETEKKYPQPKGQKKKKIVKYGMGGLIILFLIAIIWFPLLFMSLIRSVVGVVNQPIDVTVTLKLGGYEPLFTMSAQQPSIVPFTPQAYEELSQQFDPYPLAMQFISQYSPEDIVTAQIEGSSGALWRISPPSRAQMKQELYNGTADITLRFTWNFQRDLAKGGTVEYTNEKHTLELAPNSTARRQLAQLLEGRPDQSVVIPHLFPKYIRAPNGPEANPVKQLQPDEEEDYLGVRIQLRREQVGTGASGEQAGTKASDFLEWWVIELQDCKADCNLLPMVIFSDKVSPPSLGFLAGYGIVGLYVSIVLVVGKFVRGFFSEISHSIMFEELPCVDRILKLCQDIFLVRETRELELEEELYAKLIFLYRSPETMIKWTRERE

GsMTx4 (GCLEFWWKCNPNDDKCCRPKLKCSKLFKLCNFSF; HELM PEPTIDE1{G.C.L.E.F.W.W.K.C.N.P.N.D.D.K.C.C.R.P.K.L.K.C.S.K.L.F.K.L.C.N.F.S.F.[am]}$PEPTIDE1,PEPTIDE1,16:R3-30:R3|PEPTIDE1,PEPTIDE1,2:R3-17:R3|PEPTIDE1,PEPTIDE1,9:R3-23:R3$$$V2.0; N-terminus assumed; SMILES CC(C)C[C@@H]1NC(=O)[C@@H](NC(=O)CN)CSSC[C@@H]2NC(=O)[C@@H]3CSSC[C@@H](C(=O)N[C@@H](CC(N)=O)C(=O)N[C@@H](Cc4ccccc4)C(=O)N[C@@H](CO)C(=O)N[C@@H](Cc4ccccc4)C(N)=O)NC(=O)[C@H](CC(C)C)NC(=O)[C@H](CCCCN)NC(=O)[C@H](Cc4ccccc4)NC(=O)[C@H](CC(C)C)NC(=O)[C@H](CCCCN)NC(=O)[C@H](CO)NC(=O)[C@H](CSSC[C@H](NC(=O)[C@H](CCCCN)NC(=O)[C@H](Cc4c[nH]c5ccccc45)NC(=O)[C@H](Cc4c[nH]c5ccccc45)NC(=O)[C@H](Cc4ccccc4)NC(=O)[C@H](CCC(=O)O)NC1=O)C(=O)N[C@@H](CC(N)=O)C(=O)N1CCC[C@H]1C(=O)N[C@@H](CC(N)=O)C(=O)N[C@@H](CC(=O)O)C(=O)N[C@@H](CC(=O)O)C(=O)N[C@@H](CCCCN)C(=O)N3)NC(=O)[C@H](CCCCN)NC(=O)[C@H](CC(C)C)NC(=O)[C@H](CCCCN)NC(=O)[C@@H]1CCCN1C(=O)[C@H](CCCNC(=N)N)NC2=O; UniProt Q7YT39 47-80, looked up)
effect on Yoda1-induced calcium rise (Piezo1 [1]; mouse PSCs): blocked the calcium rise produced by Yoda1
effect on shear stress-induced transient [Ca2+]i elevation in TRPV4-null PSCs (Piezo1 [1]; 12 dyne/cm^2 for 1 minute): blocked the effects of high shear stress (12 dyne/cm^2 for 1 minute) on the transient [Ca^2+]i elevation
effect on Yoda1-induced trypsin activation (pancreatic acini [2]): blocked the Yoda1-induced trypsin activation
effect on shear stress-mediated pathological changes (fat droplet loss, fibronectin, collagen type I) (human PSCs): attenuated the shear stress-mediated pathological changes
effect on mechanical pushing-induced transient [Ca2+]i rise (Piezo1 [3]): completely blocked
effect on Yoda1 (25 μM)-mediated [Ca2+]i rise (Piezo1 [4]): sensitive to GsMTx4 blockade
effect on fluid shear stress-induced sustained [Ca2+]i increase (Piezo1 [4]; 12 dyne/cm^2 for 1 minute): blocked
effect on Yoda1-induced mitochondrial depolarization (pancreatic acini [5]): blocked the Yoda1-induced mitochondrial depolarization
effect on Yoda1-mediated [Ca2+]i rise (Piezo1 [6]): inhibits the Yoda1-mediated [Ca^2+]i rise
